# Test results as given in patent US5780025A, “Compositions and methods for the synthesis and assay of enkephalinase” (Genentech, Inc., priority 1993, dated 1998).
# B1: purified rat kidney enkephalinase (Rattus norvegicus) (protein)
# chain: MGRSESQMDITDINAPKPKKKQRWTPLEISLSVLVLLLTIIAVTMIALYATYDDGICKSSDCIKSAARLIQNMDASAEPCTDFFKYACGGWLKRNVIPETSSRYSNFDILRDELEVILKDVLQEPKTEDIVAVQKAKTLYRSCINESAIDSRGGQPLLTLLPDIYGWPVASQNWEQTYGTSWTAEKSIAQLNSKYGKKVLINFFVGTDDKNSTQHIIHFDQPRLGLPSRDYYECTGIYKEACTAYVDFMISVARLIRQEQRLPIDENQLSLEMNKVMELEKEIANATTKPEDRNDPMLLYNKMTLAKLQNNFSLEINGKPFSWSNFTNEIMSTVNINIQNEEEVVVYAPEYLTKLKPILTKYSPRDLQNLMSWRFIMDLVSSLSRNYKESRNAFRKALYGTTSETATWRRCANYVNGNMENAVGRLYVEAAFAGESKHVVEDLIAQIREVFIQTLDDLTWMDAETKKKAEEKALAIKERIGYPDDIISNENKLNNEYLELNYKEEEYFENIIQNLKFSQSKQLKKLREKVDKDEWISGAAVVNAFYSSGRNQIVFPAGILQPPFFSARQSNSLNYGGIGMVIGHEITHGFDDNGRNFNKDGDLVDWWTQQSANNFKDQSQCMVYQYGNFTWDLAGGQHLNGINTLGENIADNGGIGQAYRAYQNYVKKNGEEKLLPGLDLNHKQLFFLNFAQVWCGTYRPEYAVNSIKTDVHSPGNFRIIGTLQNSAEFADAFHCRKNSYMNPERKCRVW
# notes: Rat kidney enkephalinase was purified to apparent homogeneity; from tissue; host or cells: rat kidney (male rats, membrane fraction, Triton X-100 solubilised)
# What was measured:
# Test in all cases: Fluorometric determination of kinetic parameters for hydrolysis of substrates by enkephalinase
# Format in all cases: biochemical, rat
# [1] = substrate: CC(=O)NCC(=O)N[C@@H](Cc1c[nH]c2ccccc12)C(=O)NCC(=O)O; settings: other: peptides I and II: HPLC analysis of 1 hr incubations of 1 mM peptide with 200 ng (I) or 50 ng (II) enzyme; pH 7.4; 37.0 °C
# Protocol: (§1) Fluorescence measurements were made using a Perkin Elmer, model 650-10S spectrofluorometer, equipped with a temperature controlled cell-holder, maintained at 37° C. Two procedures were used. The first combined a 50 μl solution of dansylated peptide with 50 μl of purified rat kidney enkephalinase in 50 mM, pH 7.4 HEPES buffer, containing 0.1% Tween 20, yielding a substrate concentration from 1 μM to 1 mM. After 1 hour at 37° C., 500 μl of 0.1M EDTA were added to the tubes. The 600 μl mixture was transferred into a quartz cuvette, and fluorescence measured. For dansyl-Gly-Trp-Gly, the excitation wavelength was set at 280 nm and emission at 360 nm. For the two tyrosine containing peptides, the excitation wavelength was at 277 nm and emission at 315 nm. Both slits were set at 2 nm. Known amounts of Trp-Gly and Tyr-Gly, diluted in the same mixture (100 μl HEPES, Tween 20, 500 μl EDTA), were run in parallel as standards. The fluorescence in the incubation media could thus be related to the amounts of hydrolyzed substrates. The second procedure permitted continuous monitoring of the hydrolysis of the dansylated peptides. A 500 μl solution of substrate at appropriate concentration, in 50 mM, pH 7.4 HEPES buffer containing 0.1% Tween 20 was pipetted in a quartz cuvette, and allowed to equilibrate in the cell holder of the fluorimeter at 37° C. Ten μl of purified rat kidney enkephalinase was added and the increase in tryptophan or tyrosine fluorescence was continuously monitored (excitation=280 nm, emission=360 nm for tryptophan, excitation 277, emission 315 for tyrosine). To minimize oxidation of tryptophan the intensity of excitation was reduced by adjusting the fluorimeter shutter so that a 10^-4 M solution of tryptophan in water gave a fluorescence of 20.0 with excitation set at 280 nm, emission at 360 nm, both slits at 2 nm, and sensitivity at 0.1. Under these conditions, tryptophan fluorescence was stable for over 2 hr.
# (§2) The kinetic parameters for the hydrolysis of dansyl-Gly-Trp-Gly, dansyl-Gly-Tyr-Gly and Dansyl-Gly-Tyr-Gly-NH2 by purified rat kidney enkephalinase were measured by incubating increasing concentrations of the substrates with the enzyme and stopping the reaction by the addition of EDTA before fluorescence measurements were taken (Table 4).
# (§3) Km and kcat values for substrates III, IV and V were obtained by measuring the increase in tryptophan or tyrosine fluorescence after 1 hr. incubations of increasing concentrations of substrates (from 1 μM to 1 mM) with 1 ng purified enzyme at 37° C. The kcat values for these substrates and peptides I and II were also obtained by HPLC analysis of 1 hr. incubations of 1 mM peptides with 200 ng (substrate I), 50 ng (substrates II and V), or 10 ng (substrates III and IV) enzyme. The kcat values obtained by both methods for substrates III, IV and V were in close agreement.
# [2] = substrate: CN(C)c1cccc2c(S(=O)(=O)NCC(=O)N[C@@H](Cc3c[nH]c4ccccc34)C(=O)NCC(=O)O)cccc12; settings: other: fluorescence after 1 hr incubation, 1 μM to 1 mM substrate, 1 ng purified enzyme, 37° C., pH 7.4
# Protocol: as §1, §2, §3
# [3] = substrate: CN(C)c1cccc2c(S(=O)(=O)NCC(=O)N[C@@H](Cc3ccc(O)cc3)C(=O)NCC(=O)O)cccc12; settings: other: fluorescence after 1 hr incubation, 1 μM to 1 mM substrate, 1 ng purified enzyme, 37° C., pH 7.4
# Protocol: as §1, §2, §3
# [4] = substrate: CN(C)c1cccc2c(S(=O)(=O)NCC(=O)N[C@@H](Cc3ccc(O)cc3)C(=O)NCC(N)=O)cccc12; settings: other: fluorescence after 1 hr incubation, 1 μM to 1 mM substrate, 1 ng purified enzyme, 37° C., pH 7.4
# Protocol: as §1, §2, §3
# [5] = substrate: NCC(=O)N[C@@H](Cc1c[nH]c2ccccc12)C(=O)NCC(=O)O; settings: other: peptides I and II: HPLC analysis of 1 hr incubations of 1 mM peptide with 200 ng (I) or 50 ng (II) enzyme; pH 7.4; 37.0 °C
# Protocol: as §1, §2, §3
protein,measurement,setting,value
B1,kcat,[1],3.63 s⁻¹
same,Km,[2],30 µM
same,kcat,[2],15 s⁻¹
same,kcat/Km,[2],500000 M⁻¹ s⁻¹
same,Km,[3],41 µM
same,kcat,[3],19.05 s⁻¹
same,kcat/Km,[3],467000 M⁻¹ s⁻¹
same,Km,[4],90 µM
same,kcat,[4],4.13 s⁻¹
same,kcat/Km,[4],50000 M⁻¹ s⁻¹
same,kcat,[5],0.883 s⁻¹
